B1: peptide HD2 (from tick evasin EVA4) / CXCL14 (biotinylated, synthetic) (parent complex)
chain 1: EEDDYTAYAPLTCYFT
chain 2: SKCKCSRKGPKIRYSDVKKLEMKPKYPHCEEKMVIITTKSVSRYRGQEHCLHPKLQSTKRFIKWYNAWNEKRRVYEE
B2: peptide HD2 (from tick evasin EVA4) / CXCL11 (biotinylated, synthetic) (parent complex)
chain 1: EEDDYTAYAPLTCYFT
chain 2: FPMFKRGRCLCIGPGVKAVKVADIEKASIMYPSNNCDKIEVIITLKENKGQRCLNPKSKQARLIIKKVERKNF

Variants of: B1

Row | Variant | enrichment
1 | chain 1 EENDYTAYAPLTCYFT | 1.21 log2 (difference from the parental peptide)
2 | chain 1 ENDDYTAYAPLTCYFT | 0.243 log2 (difference from the parental peptide)
3 | chain 1 EEDDLTAYAPLTCYFT | -2.83 log2 (difference from the parental peptide)
4 | chain 1 EEDDMTAYAPLTCYFT | -5.9 log2 (difference from the parental peptide)
5 | chain 1 EEDDYTAYTPLTCYFT | 2.11 log2 (difference from the parental peptide)
6 | chain 1 EEDDYTAYKPLTCYFT | -4.89 log2 (difference from the parental peptide)
7 | chain 1 EEDDYTAYGPLTCYFT | -5.95 log2 (difference from the parental peptide)
8 | chain 1 EEDDYTAYFPLTCYFT | 0.278 log2 (difference from the parental peptide)
9 | chain 1 VEDDYTAYAPLTCYFT | -5.63 log2 (difference from the parental peptide)
10 | chain 1 SEDDYTAYAPLTCYFT | -6.03 log2 (difference from the parental peptide)
11 | chain 1 EEDDYTAYAPLECYFT | -5.22 log2 (difference from the parental peptide)
12 | chain 1 EEDDYTAYAPLGCYFT | -8.56 log2 (difference from the parental peptide)
13 | chain 1 EEDDYNAYAPLTCYFT | 0.149 log2 (difference from the parental peptide)
14 | chain 1 EEDDYMAYAPLTCYFT | 1.47 log2 (difference from the parental peptide)
15 | chain 1 EEDDYPAYAPLTCYFT | 1.85 log2 (difference from the parental peptide)
16 | chain 1 EEDDYTAYAPATCYFT | 0.339 log2 (difference from the parental peptide)
17 | chain 1 EEDDYTHYAPLTCYFT | 1.29 log2 (difference from the parental peptide)
18 | chain 1 EEDDYTYYAPLTCYFT | 2.89 log2 (difference from the parental peptide)
19 | chain 1 EEDDYTAYAPLTCYVT | 0.451 log2 (difference from the parental peptide)
20 | chain 1 EEDDYTAYAPLTCYHT | -4.57 log2 (difference from the parental peptide)
21 | chain 1 EEDDYTAYAPLTCYST | -6.23 log2 (difference from the parental peptide)
22 | chain 1 EEDDYTAYAPLTCYYT | 3.35 log2 (difference from the parental peptide)
23 | chain 1 EEDDYTAYAPLTPYFT | -6.86 log2 (difference from the parental peptide)
24 | chain 1 EEDDYTAYAPLTTYFT | -5.9 log2 (difference from the parental peptide)
25 | chain 1 EEDDYTAYAMLTCYFT | 2.33 log2 (difference from the parental peptide)
26 | chain 1 EEDDYTAYAFLTCYFT | -2.31 log2 (difference from the parental peptide)
27 | chain 1 EEDDYTAYAQLTCYFT | -4.65 log2 (difference from the parental peptide)
28 | chain 1 EEDDYTAYAPLTCAFT | -0.328 log2 (difference from the parental peptide)

Variants of: B2

Row | Variant | enrichment
29 | chain 1 EEDDYTAYATLTCYFT | -0.0022 log2 (difference from the parental peptide)
30 | chain 1 EEDDYTAYFPLTCYFT | -0.826 log2 (difference from the parental peptide)
31 | chain 1 EEDDYTAYSPLTCYFT | -0.211 log2 (difference from the parental peptide)
32 | chain 1 EEDDYTAYAPLTCYFN | -3.84 log2 (difference from the parental peptide)
33 | chain 1 EEDDYTAYAPLTCYFK | -4.41 log2 (difference from the parental peptide)
34 | chain 1 EEDDYTAYAPLTCWFT | -6.01 log2 (difference from the parental peptide)
35 | chain 1 EEDDYTAYAPLTCAFT | -7.18 log2 (difference from the parental peptide)
36 | chain 1 EADDYTAYAPLTCYFT | -2.47 log2 (difference from the parental peptide)
37 | chain 1 ENDDYTAYAPLTCYFT | -4.96 log2 (difference from the parental peptide)
38 | chain 1 EWDDYTAYAPLTCYFT | 1.67 log2 (difference from the parental peptide)
39 | chain 1 MEDDYTAYAPLTCYFT | 0.144 log2 (difference from the parental peptide)
40 | chain 1 HEDDYTAYAPLTCYFT | -5.11 log2 (difference from the parental peptide)
41 | chain 1 TEDDYTAYAPLTCYFT | -1.21 log2 (difference from the parental peptide)
42 | chain 1 GEDDYTAYAPLTCYFT | -4.38 log2 (difference from the parental peptide)
43 | chain 1 SEDDYTAYAPLTCYFT | -1.7 log2 (difference from the parental peptide)
44 | chain 1 EEDDYTAYAPLTCYWT | -6.32 log2 (difference from the parental peptide)
45 | chain 1 EEDDYTAYAPLTCYPT | -3.5 log2 (difference from the parental peptide)
46 | chain 1 EEDDYTAYAPLTCYIT | -3.39 log2 (difference from the parental peptide)
47 | chain 1 EEDDYTAYAPFTCYFT | 2.94 log2 (difference from the parental peptide)
48 | chain 1 EEDDYTAYAPLTTYFT | -3.56 log2 (difference from the parental peptide)
49 | chain 1 EEDDYTAYAPLTHYFT | -5.78 log2 (difference from the parental peptide)
50 | chain 1 EEGDYTAYAPLTCYFT | -4.59 log2 (difference from the parental peptide)
51 | chain 1 EEDDYTALAPLTCYFT | -0.881 log2 (difference from the parental peptide)
52 | chain 1 EEDYYTAYAPLTCYFT | -4.43 log2 (difference from the parental peptide)
53 | chain 1 EEDDHTAYAPLTCYFT | -0.00324 log2 (difference from the parental peptide)
54 | chain 1 EEDDYLAYAPLTCYFT | 3.05 log2 (difference from the parental peptide)
55 | chain 1 EEDDYEAYAPLTCYFT | 3.52 log2 (difference from the parental peptide)
56 | chain 1 EEDDYVAYAPLTCYFT | -0.999 log2 (difference from the parental peptide)

From paper PMC11969024 (2025)
